Experimental data published in publication PMC3817407.
Several values for one entry are separate records, joined by “and”; a condition that tells them apart may be missing. Equal values may be shown once.

Columns and labels:
[1] = biological target: ECF27_1331
[2] = biological target: ECF26_4464
[3] = biological target: T1, ECF02_2817
T1 chain: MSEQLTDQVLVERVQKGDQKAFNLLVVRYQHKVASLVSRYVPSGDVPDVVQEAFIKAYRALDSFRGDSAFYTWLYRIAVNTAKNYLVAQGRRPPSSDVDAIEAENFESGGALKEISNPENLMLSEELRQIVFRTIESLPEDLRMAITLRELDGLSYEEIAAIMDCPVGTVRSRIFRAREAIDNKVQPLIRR

[4] = biological target: T2, ECF17_1691
T2 chain: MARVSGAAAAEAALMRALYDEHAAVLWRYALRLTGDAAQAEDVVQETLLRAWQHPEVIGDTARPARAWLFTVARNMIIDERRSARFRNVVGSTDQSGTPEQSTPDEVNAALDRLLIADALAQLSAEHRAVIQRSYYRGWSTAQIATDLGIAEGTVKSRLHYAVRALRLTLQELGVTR

[5] = biological target: T3, ECF12_807
T3 chain: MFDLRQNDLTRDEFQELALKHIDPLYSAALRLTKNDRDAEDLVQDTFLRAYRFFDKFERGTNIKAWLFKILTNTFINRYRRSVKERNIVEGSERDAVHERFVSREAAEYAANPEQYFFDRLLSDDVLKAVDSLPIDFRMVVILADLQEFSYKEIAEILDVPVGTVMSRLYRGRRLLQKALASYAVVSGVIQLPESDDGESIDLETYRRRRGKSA

[6] = biological target: T4, ECF22_1147
T4 chain: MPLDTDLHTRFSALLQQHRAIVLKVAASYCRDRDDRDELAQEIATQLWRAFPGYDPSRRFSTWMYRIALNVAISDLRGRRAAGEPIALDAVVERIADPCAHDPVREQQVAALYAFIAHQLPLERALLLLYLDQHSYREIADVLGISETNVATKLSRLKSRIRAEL

[7] = biological target: T5, ECF16_973
T5 chain: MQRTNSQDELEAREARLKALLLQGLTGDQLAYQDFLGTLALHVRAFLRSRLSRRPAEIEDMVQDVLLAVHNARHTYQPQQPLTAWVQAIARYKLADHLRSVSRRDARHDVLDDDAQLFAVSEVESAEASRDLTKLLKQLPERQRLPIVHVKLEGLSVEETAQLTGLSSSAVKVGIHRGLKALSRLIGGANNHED

[8] = biological target: T6, ECF15_436
T6 chain: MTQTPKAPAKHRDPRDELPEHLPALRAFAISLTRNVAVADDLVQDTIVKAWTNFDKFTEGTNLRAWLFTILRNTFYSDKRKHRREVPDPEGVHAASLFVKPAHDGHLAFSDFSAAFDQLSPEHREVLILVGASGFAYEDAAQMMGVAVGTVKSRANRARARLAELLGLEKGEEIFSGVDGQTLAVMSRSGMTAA

[9] = biological target: T7, ECF22_4450
T7 chain: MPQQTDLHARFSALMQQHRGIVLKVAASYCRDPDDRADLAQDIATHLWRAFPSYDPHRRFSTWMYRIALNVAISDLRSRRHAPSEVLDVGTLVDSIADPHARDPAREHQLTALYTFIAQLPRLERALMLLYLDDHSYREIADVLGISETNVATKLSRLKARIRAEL

[10] = biological target: T8, ECF35_3582
T8 chain: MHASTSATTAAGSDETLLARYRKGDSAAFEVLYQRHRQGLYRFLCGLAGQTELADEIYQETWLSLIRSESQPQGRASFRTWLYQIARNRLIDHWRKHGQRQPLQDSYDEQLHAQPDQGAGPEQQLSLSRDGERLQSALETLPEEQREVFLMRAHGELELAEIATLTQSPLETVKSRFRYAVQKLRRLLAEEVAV

[11] = biological target: T9, ECF27_4265
T9 chain: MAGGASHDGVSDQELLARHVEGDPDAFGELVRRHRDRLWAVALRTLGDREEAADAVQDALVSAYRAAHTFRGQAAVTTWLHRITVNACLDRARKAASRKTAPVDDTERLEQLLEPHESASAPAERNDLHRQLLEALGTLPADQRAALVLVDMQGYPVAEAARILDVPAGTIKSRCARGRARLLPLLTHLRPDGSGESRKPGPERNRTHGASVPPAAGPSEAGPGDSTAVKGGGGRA

[12] = biological target: T10, ECF04_1609
T10 chain: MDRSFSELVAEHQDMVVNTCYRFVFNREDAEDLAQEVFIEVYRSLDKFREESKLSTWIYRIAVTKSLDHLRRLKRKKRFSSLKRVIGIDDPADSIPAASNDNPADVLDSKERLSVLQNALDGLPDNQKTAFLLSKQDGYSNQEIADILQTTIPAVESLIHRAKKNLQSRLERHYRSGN

[13] = biological target: T11, ECF11_987
T11 chain: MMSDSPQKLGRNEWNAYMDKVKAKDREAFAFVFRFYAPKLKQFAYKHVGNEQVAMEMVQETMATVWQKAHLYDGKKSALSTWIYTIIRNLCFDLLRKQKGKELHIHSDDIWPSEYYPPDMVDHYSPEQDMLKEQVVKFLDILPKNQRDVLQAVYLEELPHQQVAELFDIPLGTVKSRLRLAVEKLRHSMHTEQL

[14] = biological target: T12, ECF03_1198
T12 chain: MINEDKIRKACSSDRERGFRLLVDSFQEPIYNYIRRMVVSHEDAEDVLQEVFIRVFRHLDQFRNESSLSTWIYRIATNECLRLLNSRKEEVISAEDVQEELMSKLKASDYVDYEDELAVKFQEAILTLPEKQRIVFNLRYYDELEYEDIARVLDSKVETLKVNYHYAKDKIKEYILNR

[15] = biological target: T13, ECF25_1643
T13 chain: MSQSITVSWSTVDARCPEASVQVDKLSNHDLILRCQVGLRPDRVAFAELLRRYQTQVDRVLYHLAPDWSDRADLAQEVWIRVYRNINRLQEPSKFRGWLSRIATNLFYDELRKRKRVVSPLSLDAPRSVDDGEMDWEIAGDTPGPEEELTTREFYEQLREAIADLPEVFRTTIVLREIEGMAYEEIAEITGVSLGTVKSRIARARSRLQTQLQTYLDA

[16] = biological target: T14, ECF16_3622
T14 chain: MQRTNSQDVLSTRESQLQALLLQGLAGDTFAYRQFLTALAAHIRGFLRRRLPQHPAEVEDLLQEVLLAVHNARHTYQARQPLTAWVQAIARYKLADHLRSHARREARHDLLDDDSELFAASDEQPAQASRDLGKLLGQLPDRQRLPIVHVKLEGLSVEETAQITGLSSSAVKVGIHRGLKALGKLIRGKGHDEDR

B1: AS35_3582 (protein)
chain: MNPQKHSASVAEEQMLAHFRAHAPQQPAPALDQAILAAARRQAAHVEPARSWWRRWLEASRRPRWQAAFASLLGVALVLGLVSHNVLDDAERQARPEVAFSDVPLRDGVAGAAAAKRAMRAPAAPAPLSGEMSEPPALLASYASSGEAPQLMAEAAPPAPAALADRPPAQAAQQAKVQAALAGDFVAQARGKAVAVKPEVLDEALGAVLALREQGKTEQAATQLAELQKRFPGENLVERLERLATIAASARKRP
fold repression [1]: 7.23 | fold repression [2]: 10.7 | fold repression [3]: 6.36 | fold repression [4]: 4.63 | fold repression [5]: 10.1 | fold repression [6]: 10.9 | fold repression [7]: 3.39 | fold repression [8]: 7.43 | fold repression [9]: 8.03 | fold repression [10]: 311 | fold repression [11]: 2.28 | fold repression [12]: 6.84 | fold repression [13]: 9.63 | fold repression [14]: 6.26 | fold repression [15]: 5.68 and 4.69 | fold repression [16]: 6.44

B2: AS31_34 (protein)
chain: MNKEKLSDHLKSEWKKIDQTANPSIPNQKELLHQLSQMKAEYRKKLLQEIILFVFCALMVVSAAILAFTQAPAVFIVLQVCVLAVLPILIAAEKKRHLGECEVKRG
fold repression [1]: 2.57 | fold repression [2]: 3.63 | fold repression [3]: 1.79 | fold repression [4]: 2.93 | fold repression [5]: 3.66 | fold repression [6]: 3.62 | fold repression [7]: 1.84 | fold repression [8]: 2.54 | fold repression [9]: 3.59 | fold repression [10]: 2.06 | fold repression [11]: 1.48 | fold repression [12]: 2.79 | fold repression [13]: 3.03 | fold repression [14]: 2.96 | fold repression [15]: 2.25 and 1.91 | fold repression [16]: 3.01

B3: AS37_2513 (protein)
chain: MSSAPATKEEVDFALKVRRALDERAASLPDATTDRLAAARRAALARKKPDAAIVLVPALAGSAGTLELRPPGEPRKSLARRLARAWPLALLLAGLIGIAYWEDMQRTAELADIDAAMLSDNLPLTAYLDHGFNAYLSHTH
fold repression [1]: 6.45 | fold repression [2]: 7.32 | fold repression [3]: 4.08 | fold repression [4]: 4.17 | fold repression [5]: 9.33 | fold repression [6]: 8.31 | fold repression [7]: 3.54 | fold repression [8]: 5.3 | fold repression [9]: 7.22 | fold repression [10]: 2.62 | fold repression [11]: 2.71 | fold repression [12]: 4.3 | fold repression [13]: 9.25 | fold repression [14]: 4.01 | fold repression [15]: 5.22 and 5.59 | fold repression [16]: 5.36
